T1: B3GNT2 (Homo sapiens, UniProt Q9NY97)
T1 construct: The respective ORFs of candidate genes [CD274 (NM_014143), MCL1 (NM_021960), JUNB (NM_002229), and B3GNT2 (NM_006577)] were synthesized; expressed in transfected cells; host or cells: A375 melanoma cells (lentiviral ORF overexpression)
T1 sequence (Q9NY97 1-397): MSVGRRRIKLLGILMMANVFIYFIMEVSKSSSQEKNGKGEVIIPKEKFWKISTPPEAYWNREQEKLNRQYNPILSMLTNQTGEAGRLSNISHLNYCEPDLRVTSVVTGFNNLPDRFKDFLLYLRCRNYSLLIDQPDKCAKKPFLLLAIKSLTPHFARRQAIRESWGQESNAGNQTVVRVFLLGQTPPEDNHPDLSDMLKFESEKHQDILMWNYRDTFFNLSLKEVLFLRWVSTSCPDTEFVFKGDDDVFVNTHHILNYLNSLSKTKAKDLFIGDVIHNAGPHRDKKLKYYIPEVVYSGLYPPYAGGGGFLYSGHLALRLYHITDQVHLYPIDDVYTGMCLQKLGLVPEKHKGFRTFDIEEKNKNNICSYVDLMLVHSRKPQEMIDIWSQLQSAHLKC


Target: T1, B3GNT2
Assay: Co-IP of FLAG-tagged B3GNT2 followed by mass spectrometry
Format: cell-based
Design: C-term IgG / C-term flag: unit not given here
Conditions: mass spectrometry count, unit not given; for C-term flag / N-term FLAG: Co-IP with FLAG antibody; for C-term flag / C-term IgG: C-terminally FLAG-tagged B3GNT2; for N-term FLAG / N-term IgG: N-terminally FLAG-tagged B3GNT2; for C-term IgG / N-term IgG: Co-IP with IgG control antibody
Method in brief: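 Co-purifying proteins were identified by fractionated nano-LC–MS/MS on an Orbitrap Elite, run data-dependent. Beforehand, lysates in 1% Triton X-100/HEPES buffer were incubated overnight at 4° C with anti-FLAG or […] and pulled down on Protein A/G magnetic beads for 4 h. Duplicate biological replicates.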

| Molecule | C-term flag | N-term FLAG | C-term IgG | N-term IgG |
| --- | --- | --- | --- | --- |
| TRAFD1 (protein) AEFLDDQETRLCDNCKKEIPVFNFTIHEIHCQRNIGMCPTCKEPFPKSDMETHMAAEHCQVTCKCNKKLEKRLLKKHEETECPLRLAVCQHCDLELSILKLKEHEDYCGARTELCGNCGRNVLVKDLKTHPEVCGREGEEKRNEVAIPPNAYDESWGQDGIWIASQLLRQIEALDPPMRLPRRPLRAFESDVFHNRTTNQRNITAQVSIQNNLFEEQERQERNRGQQPPKEGGEESANLDFMLALSLQNEGQASSVAEQDFWRAVCEADQSHGGPRSLSDIKGAADEIMLPCEFCEELYPEELLIDHQTSCNPSRALPSLNTGSSSPRGVEEPDVIFQNFLQQAASNQLDSLMGLSNSHPVEESIIIPCEFCGVQLEEEVLFHHQDQCDQRPATATNHVTEGIPRLDSQPQETSPELPRRRVRHQGDLSSGYLDDTKQETANGPTSCLPPSRPINNMTATYNQLSRSTSGPRPGCQPSSPCVPKLSNSDSQDIQGRNRDSQNGAIAPGHVSVIRPPQNLYPENIVPSFSPGPSGRYGASGRSEGGRNSRVTPAAANYRSRTAKAKPSKQQGAGDAEEEEEE | 2 | 0 | 0 | 0 |
| PSMB6 (protein) TTIMAVQFDGGVVLGADSRTTTGSYIANRVTDKLTPIHDRIFCCRSGSAADTQAVADAVTYQLGFHSIELNEPPLVHTAASLFKEMCYRYREDLMAGIIIAGWDPQEGGQVYSVPMGGMMVRQSFAIGGSGSSYIYGYVDATYREGMTKEECLQFTANALALAMERDGSSGGVIRLAAIAESGVERQVLLGDQIPKFAVATLPPA | 3 | 5 | 0 | 0 |
| STAU1 (protein) MKLGKKPMYKPVDPYSRMQSTYNYNMRGGAYPPRYFYPFPVPPLLYQVELSVGGQQFNGKGKTRQAAKHDAAAKALRILQNEPLPERLEVNGRESEEENLNKSEISQVFEIALKRNLPVNFESFPLKQVARESGPPHMKNFVTKVSVGEFVGEGEGKSKKISKKNAAIAVLEELKKLPPLPAVERVKPRIKKKTKPIVKPQTSPEYGQGINPISRLAQIQQAKKEKEPEYTLLTERGLPRRREFVMQVKVGNHTAEGTGTNKKVAKRNAAENMLEILGFKVPQAQPTKPALKSEEKTPIKKPGDGRKVTFFEPGSGDENGTSNKEDEFRMPYLSHQQLPAGILPMVPEVAQAVGVSQGHHTKDFTRAAPNPAKATVTAMIARELLYGGTSPTAETILKNNISSGHVPHGPLTRPSEQLDYLSRVQGFQVEYKDFPKNNKNEFVSLINCSSQPPLISHGIGKDVESCHDMAALNILKLLSELDQQSTEMPRTGNGPMSVCGRC | 6 | 2 | 0 | 0 |
| STAU2 (protein) MANPKEKTAMCLVNELARFNRVQPQYKLLNERGPAHSKMFSVQLSLGEQTWESEGSSIKKAQQAVANKALTESTLPKPVQKPPKSNVNNNPGSITPTVELNGLAMKRGEPAIYRPLDPKPFPNYRANYNFRGMYNQRYHCPVPKIFYVQLTVGNNEFFGEGKTRQAARHNAAMKALQALQNEPIPERSPQNGESGKDVDDDKDANKSEISLVFEIALKRNMPVSFEVIKESGPPHMKSFVTRVSVGEFSAEGEGNSKKLSKKRAATTVLQELKKLPPLPVVEKPKLFFKKRPKTIVKAGPEYGQGMNPISRLAQIQQAKKEKEPDYVLLSERGMPRRREFVMQVKVGNEVATGTGPNKKIAKKNAAEAMLLQLGYKASTNLQDQLEKTGENKGWSGPKPGFPEPTNNTPKGILHLSPDVYQEMEASRHKVISGTTLGYLSPKDMNQPSSSFFSISPTSNSSATIARELLMNGTSSTAEAIGLKGSSPTPPCSPVQPSKQLEYLARIQGFQAALSALKQFSEQGLDPIDGAMNIEKGSLEKQAKHLREKADNNQAPPGSIAQDCKKSNSAV | 2 | 0 | 0 | 0 |
| GANAB (protein) ITLAVDRSNFKTCEESSFCKRQRSIRPGLSPYRALLDSLQLGPDSLTVHLIHEVTKVLLVLELQGLQKNMTRFRIDELEPRRPRYRVPDVLVADPPIARLSVSGRDENSVELTMAEGPYKIILTARPFRLDLLEDRSLLLSVNARGLLEFEHQRAPRVSQGSKDPAEGDGAQPEETPRDGDKPEETQGKAEKDEPGAWEETFKTHSDSKPYGPMSVGLDFSLPGMEHVYGIPEHADNLRLKVTEGGEPYRLYNLDVFQYELYNPMALYGSVPVLLAHNPHRDLGIFWLNAAETWVDISSNTAGKTLFGKMMDYLQGSGETPQTDVRWMSETGIIDVFLLLGPSISDVFRQYASLTGTQALPPLFSLGYHQSRWNYRDEADVLEVDQGFDDHNLPCDVIWLDIEHADGKRYFTWDPSRFPQPRTMLERLASKRRKLVAIVDPHIKVDSGYRVHEELRNLGLYVKTRDGSDYEGWCWPGSAGYPDFTNPTMRAWWANMFSYDNYEGSAPNLFVWNDMNEPSVFNGPEVTMLKDAQHYGGWEHRDVHNIYGLYVHMATADGLRQRSGGMERPFVLARAFFAGSQRFGAVWTGDNTAEWDHLKISIPMCLSLGLVGLSFCGADVGGFFKNPEPELLVRWYQMGAYQPFFRAHAHLDTGRREPWLLPSQHNDIIRDALGQRYSLLPFWYTLLYQAHREGIPVMRPLWVQYPQDVTTFNIDDQYLLGDALLVHPVSDSGAHGVQVYLPGQGEVWYDIQSYQKHHGPQTLYLPVTLSSIPVFQRGGTIVPRWMRVRRSSECMKDDPITLFVALSPQGTAQGELFLDDGHTFNYQTRQEFLLRRFSFSGNTLVSSSADPEGHFETPIWIERVVIIGAGKPAAVVLQTKGSPESRLSFQHDPETSVLVLRKPGINVASDWSIHLR | 8 | 0 | 0 | 0 |
| PJA2 (protein) SQYTEKEPAAMDQESGKAVWPKPAGGYQTITGRRYGRRHAYVSFKPCMTRHERSLGRAGDDYEVLELDDVPKENSSGSSPLDQVDSSLPSEPIFEKSETEIPTCGSALNQTTESSQSFVAVHHSEEGRDTLGSSTNLHNHSEGEYIPGACSASSVQNGIALVHTDSYDPDGKHGEDNDHLQLSAEVVEGSRYQESLGNTVFELENREAEAYTGLSPPVPSFNCEVRDEFEELDSVPLVKSSAGDTEFVHQNSQEIQRSSQDEMVSTKQQNNTSQERQTEHSPEDAACGPGHICSEQNTNDREKNHGSSPEQVVRPKVRKLISSSQVDQETGFNRHEAKQRSVQRWREALEVEESGSDDLLIKCEEYDGEHDCMFLDPPYSRVITQRETENNQMTSESGATAGRQEVDNTFWNGCGDYYQLYDKDEDSSECSDGEWSASLPHRFSGTEKDQSSSDESWETLPGKDENEPELQSDSSGPEEENQELSLQEGEQTSLEEGEIPWLQYNEVNESSSDEGNEPANEFAQPAFMLDGNNNLEDDSSVSEDLDVDWSLFDGFADGLGVAEAISYVDPQFLTYMALEERLAQAMETALAHLESLAVDVEVANPPASKESIDGLPETLVLEDHTAIGQEQCCPICCSEYIKDDIATELPCHHFFHKPCVSIWLQKSGTCPVCRRHFPPAVIEASAAPSSEPDPDAPPSNDSIAEAP | 2 | 0 | 0 | 0 |
| CTHRC1 (protein) MWPPGRSITVKLREKTVSRKLEMNGPSAFQGLICGKYNGMCLQGPAGVPGRDGSPGANGIPGTPGIPGRDGFKGEKGECLRESFEESWTPNYKQCSWSSLNYGIDLGKIAECTFTKMRSNSALRVLFSGSLRLKCRNACCQRWYFTFNGAECSGPLPIEAIIYLDQGSPEMNSTINIHRTSSVEGLCEGIGAGLVDVAIWVGTCSDYPKGDASTGWNSVSRIIIEELPK | 2 | 0 | 0 | 0 |

Reference: patent US20240261333A1, “NOVEL TARGETS FOR ENHANCING ANTI-TUMOR IMMUNITY” (THE BROAD INSTITUTE, INC., priority 2021, published 2024)
